According to US20230220589A1:

Legend:
[1] = molecular target: M44-modified G NTAA target peptides (M44-G-P2-peptide); experiment: encoding assay; P2 G
[2] = molecular target: M17-modified S NTAA target peptides; experiment: encoding assay; P2 A
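Also: fraction of recording tags encoded.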

encoding yield [1]	encoding yield [2]	Binder
0.01	–	engineered M44-A binder (SEQ ID NO: 42) (designed binder, not shown: small tags and cut ends; large carriers) QVSVQPNFQQDKFLGRWFVAGLASNSSWDREKVAALSGAKMVVAPATDGGLNVTRTMLRKNQCETYTGLLQPAGSLGSYSWRSPHPGSTGSESVVETDYDQYALVYGQGSKGPGEDLRAAALWSRTQTPRAELKEKFTAFSKAQGFTEDTIVFLPQTDKCMTEQ
–	0.01	upgraded binder after additional maturation round (SEQ ID NO: 62) (designed binder, not shown: small tags and cut ends; large carriers) TVPDRSEIAGKWYVVALASNTEFYLRGKDRVKSAMVRISFQGEDELKVSSAVPSPNGCYKVERTWKKTSDDGEVYNSRAAKLKVEVLDTDYKSYAVIYATRVKDRRTDHQMILYSRSPDVSPAATAIFRKLAGERNYTDEMVAMLPRQEECTVDEV
